{
  "source": "paper PMC8844856",
  "about": "“Structural basis of cyclic oligoadenylate binding to the transcription factor Csa3 outlines cross talk between type III and type I CRISPR systems” (The Journal of Biological Chemistry, 2022)",
  "binders": {"B1": {"name": "Saccharolobus solfataricus Csa3 (Csa3Sso), N-terminally His6-tagged, wildtype (natural protein, UniProt Q97Y88 1-237, looked up)", "chain": "MKSYFVTMGFNETFLLRLLNETSAQKEDSLVIVVPSPIVSGTRAAIESLRAQISRLNYPPPRIYEIEITDFNLALSKILDIILTLPEPIISDLTMGMRMINTLILLGIIVSRKRFTVYVRDEGGGSRVISFNDNTIRALMRDYSREEMKLLNVLYETKGTGITELAKMLDKSEKTLINKIAELKKFGILTQKGKDRKVELNELGLNVIKLNKSVIESSKSSEELVKENKGKEVNIPY", "notes": "Csa3 (CRISPR Apern 3, a Csa3a homolog) of Saccharolobus solfataricus strain P2, Sso1445, UniProtKB Q97Y88; full-length; the His6-tagged construct has 248 a.a; (MW theor 28.1 kDa); Synthetic gene in pBB75 (or pET21b); also called His6-Csa3Sso; Csa3Sso (WT); source: E. coli BL21(DE3)-pLysS, purified (lysate heated at 65 °C, HisTrap, Mono-Q flow-through, Cibacron Blue, Superdex 200); not shown: …"}, "B2": {"name": "Csa3Sso-R98A mutant, N-terminally His6-tagged (natural protein, Saccharolobus solfataricus, UniProt Q97Y88 1-237, looked up)", "chain": "B1 chain with R98A", "notes": "Csa3 of Saccharolobus solfataricus strain P2, Sso1445, UniProtKB Q97Y88; full-length, with R98A; Synthetic gene in pBB75; source: E. coli BL21(DE3)-pLysS, purified (lysate heated at 65 °C, HisTrap, Mono-Q flow-through, Cibacron Blue, Superdex 200); not shown: His6, N-terminal, kept"}, "B3": {"name": "PCas4a (dsDNA)", "DNA 1": "AAAGAATTCCCGAATTTACTAGGGAT", "DNA 2": "ATCCCTAGTAAATTCGGGAATTCTTT"}, "B4": {"name": "Cy5-PCas4a (dsDNA)", "DNA 1": "AAAGAATTCCCGAATTTACTAGGGAT", "DNA 2": "ATCCCTAGTAAATTCGGGAATTCTTT", "modifications": "5' amino-modified top strand"}},
  "key": {"[1]": {"biological_target": "the molecule itself", "experiment": "SEC; Superdex 200 16/70 gel filtration in buffer F (20 mM Tris-HCl pH 8.0, 50 mM NaCl), against globular standards"}, "[2]": {"biological_target": "the molecule itself", "experiment": "AUC; sedimentation velocity, 20 °C, 40,000 rpm, 10 mM Na/KPO4 pH 5.8, 10 mM NaCl, 25 mM MgCl2; without cA4"}, "Csa3Sso WT [3]": {"biological_target": "T1, Csa3Sso WT (Saccharolobus solfataricus P2, UniProt Q97Y88 1-237)", "T1 sequence": "B1 chain", "experiment": "MST; apparent Kd; MST buffer not given in the material; Cy5 EMSA: 50 nM probe, 0.5-25 uM protein, 5% acrylamide TBE, 4 C; agarose EMSA: 2% TBE, room temperature; crystals: 20 mM", "conditions": "protein: recombinant; tags: N-terminal His6; chain copies: 2; cyclic; no ends"}, "Csa3Sso WT [4]": {"biological_target": "T1, Csa3Sso WT", "experiment": "MST; no cOA; precipitate removed; MST buffer not given in the material; Cy5 EMSA: 50 nM probe, 0.5-25 uM protein, 5% acrylamide TBE, 4 C; agarose EMSA: 2% TBE, room temperature; crystals: 20 mM", "conditions": "protein: recombinant; tags: N-terminal His6; chain copies: 2; blunt"}, "Csa3Sso WT [5]": {"biological_target": "T1, Csa3Sso WT", "experiment": "EMSA; no cA4; faint shifted band; MST buffer not given in the material; Cy5 EMSA: 50 nM probe, 0.5-25 uM protein, 5% acrylamide TBE, 4 C; agarose EMSA: 2% TBE, room temperature; crystals: 20 mM", "conditions": "protein: recombinant; tags: N-terminal His6; chain copies: 2; label: 5' Cy5 on top strand; blunt"}},
  "note": "Substitutions are numbered along the chain they refer to. In names and notes the source's numbering stands.",
  "data": [
    {"binder": "B1", "values": [
      {"measurement": "stoichiometry N", "setting": "[1]", "result": 2}
    ]},
    {"binder": "B2", "values": [
      {"measurement": "stoichiometry N", "setting": "[2]", "result": 2}
    ]},
    {"binder": "AAAA (ssRNA, cyclic, 3'-5' linked tetra-adenylate (CHEBI:142457))", "note": "[cA4]", "values": [
      {"measurement": "Kd", "setting": "Csa3Sso WT [3]", "result": "5.8 ± 0.03", "unit": "µM"}
    ]},
    {"binder": "B3", "values": [
      {"measurement": "Kd", "setting": "Csa3Sso WT [4]", "result": "1.62 ± 0.17", "unit": "µM"}
    ]},
    {"binder": "B4", "values": [
      {"measurement": "binding result", "setting": "Csa3Sso WT [5]", "result": "binds"}
    ]}
  ]
}
